Entries after “also recorded” stand apart in the source; their conditions may differ. Bridges are numbered along the chain shown (N, C = ends). Where no end group is shown, it is not given here.
Assays:
Assay type in all cases: binding
human recombinant LANCL2 = biological target: T1, human recombinant LANCL2 (Homo sapiens, UniProt Q9NS86); assay: In-gel fluorescence: photolabelling of recombinant LANCL2 with PAL probe, with or without excess LAT8881
T1 construct: human recombinant LANCL2 (amino acid residues 1-450); GST (N); purchased ABCAM ab163277; host or cells: wheat germ
T1 sequence (Q9NS86 1-450): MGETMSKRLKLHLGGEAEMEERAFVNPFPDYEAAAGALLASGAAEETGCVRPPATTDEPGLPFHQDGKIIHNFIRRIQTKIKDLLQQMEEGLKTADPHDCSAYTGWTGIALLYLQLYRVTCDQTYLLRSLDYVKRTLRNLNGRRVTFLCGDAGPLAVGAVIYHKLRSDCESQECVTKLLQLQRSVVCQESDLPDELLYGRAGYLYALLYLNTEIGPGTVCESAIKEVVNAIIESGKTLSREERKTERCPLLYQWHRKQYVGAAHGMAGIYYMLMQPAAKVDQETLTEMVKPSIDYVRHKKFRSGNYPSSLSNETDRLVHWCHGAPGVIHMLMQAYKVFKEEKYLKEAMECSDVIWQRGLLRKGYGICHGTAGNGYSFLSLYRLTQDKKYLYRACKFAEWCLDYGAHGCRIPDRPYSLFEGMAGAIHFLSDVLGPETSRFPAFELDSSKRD
Experimental: An in-gel fluorescence protocol was followed to determine whether the cyclic peptides bound to LANCL2 and LANCL3. Briefly:
1. LANCL2 and LANCL3 Labelling, Assay on 96 Well Plate, Volume of the Reaction 40 μl in PBS
• 1 μg/well of human recombinant LANCL2 (amino acid residues 1-450; ABCAM catalog no. ab163277, ˜0.07 mg/ml; expressed in wheat germ and incorporating an N-terminal GST tag; UniProt Accession no: Q9NS86);
• Vehicle DMSO • ±LAT8881 (a cyclic peptide fragment of human growth hormone; SEQ ID NO:1) • SEQ ID NO:1 as competitor @ 50, 100 or 200 μM, pre-incubation 10 min, 4 μl of a stock solution 10-fold concentrated • ±LAT9991-PAL probes @ 1 μM, incubation 30 min at room temperature on a plate agitator (protected from light), 4 μl of a stock solution @10 μM
• Irradiation @ 365 nm 20 min (4° C., on a support containing ice) • Transfer 40 μl in a clean Eppendorf tube
• Reduction: DTT 10 mM, 30 min @ 56° C. • Alkylation: Iodoacétamide 30 mM, 45 min @ RT Click-iT AzideTamra of 60 μL samples
• Acetone Precipitation −20° C. ON • Dry pellet resuspended in 30 μL 1% SDS in 50 mM Tris-HCl pH 7.5 • Photolabeled LANCL1 was tagged with tetramethylrhodamine (TAMRA) azide @100 μM TAMRA azide by copper click chemistry using the Click-iT Protein Reaction Buffer Kit (ThermoFisher Scientific) for 30 minutes • Precipitation using the chloroform-methanol method, pellet was air-dried for 10 min at room temperature, resuspended in 30 μL SDS loading buffer (Bio Rad XT Sample Buffer containing 2.5% v/v 2-mercaptoethanol) and heated (60° C., 30 min)
• SDS-PAGE (4-15% Criterion™ TGX Stain-Free™ Protein Gel, Bio Rad) • Analyzed by in-gel fluorescence scanning using a ChemiDoc™ MP Imaging System (Bio Rad) with a green LED light as an excitation source and a BP600/20 nm emission filter

LANCL1 [1] = biological target: T2, LANCL1 (Rattus norvegicus, UniProt Q9QX69); assay: Streptavidin pull-down of probe-labelled proteins from spinal cord microsomal fraction, anti-LANCL1 Western Blot; parameters: from tissue; host or cells: rat spinal cord, microsomal fraction
Experimental: To confirm the LANCL1 enrichment observed by mass spectrometry sequencing pull-down experiments, commercial antibodies to LANCL1 (polyclonal rabbit anti-LANCL1, PA557107 from Invitrogen) were used to identify the presence of the LANCL1 in nerve microsome preparations. Briefly, rat spinal cord were lysed in lysate buffer, (sodium phosphate buffer 5 mM pH7.4, sucrose 0.32M+protease inhibitors (cOmplete ULTRA tablets from Roche, mini easy pack, 05892970001)). All the following steps were done on ice. The samples were homogenized, and the total extract centrifuged at 10000 g during 20 minutes. The supernatant was kept and the lysis step was repeated on the pellet adding 10 ml more of lysis buffer, followed by a new centrifugation step. This step extraction was done two times as described and the supernatants were pooled before centrifugation at 105000 g using the Ti50.2 Beckman rotor for 90 minutes at 4° C. The pellet was kept as a microsomal fraction and stored at −80° C. […] Images acquired with the ChemiDoc™ MP Imaging System were analyzed with Imagelab software (Bio-Rad).

LANCL1 [2] = biological target: T2, LANCL1; assay: Mass spectrometry of excised gel bands from PAL cross-linked homogenates (PALMS); parameters: from tissue; host or cells: nerve tissue homogenate of neuropathic animals
Text: Having identified at least three molecular weight bands as representative of the potential targets, the 12-15 kD, 37 kD and 50 kD regions of the gel were excised, subjected to limited proteolysis and analysed by mass spectrometry to identify peptides from proteins that were differentially enriched. The detection of at least two different peptides from a protein that is enriched in the LAT9991-PAL cross-linked samples when compared to (i) the un-crosslinked samples and (ii) LAT9991-PAL in the presence of excess LAT8881 (SEQ ID NO:1; YLRIVQCRSVEGSCGF) was considered a positive signature. LAT9991-PAL, LAT9993-PAL and LAT7771-PAL were also used. LAT9993 (SEQ ID NO:41) has the amino acid sequence SCRSRPVESSC.

T2 sequence (Q9QX69 whole entry): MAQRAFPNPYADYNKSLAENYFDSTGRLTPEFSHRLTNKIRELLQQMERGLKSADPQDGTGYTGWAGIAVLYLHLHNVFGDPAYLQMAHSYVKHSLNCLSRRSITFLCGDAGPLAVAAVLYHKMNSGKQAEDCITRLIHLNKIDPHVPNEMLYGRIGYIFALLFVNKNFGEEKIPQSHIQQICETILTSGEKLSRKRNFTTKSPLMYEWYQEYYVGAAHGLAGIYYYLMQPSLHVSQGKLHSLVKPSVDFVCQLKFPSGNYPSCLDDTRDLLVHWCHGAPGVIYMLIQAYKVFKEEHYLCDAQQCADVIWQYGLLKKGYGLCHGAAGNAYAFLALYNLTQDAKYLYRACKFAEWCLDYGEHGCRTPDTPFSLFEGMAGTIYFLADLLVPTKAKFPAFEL

| Binding of PAL probe to recombinant LANCL2 (human recombinant LANCL2; in-gel fluorescence after UV cross-linking) | Substance | Detection of LANCL1 in eluates of probe pull-down (Western Blot) (LANCL1 [1]; 5 μM probe, rat spinal cord microsomal fraction) | LANCL1 bound / enriched in PAL probe cross-linked samples (mass spectrometry) (LANCL1 [2]; vs un-crosslinked samples (CU) and samples with excess LAT8881 (COMP), 37 kDa band) | Inhibition of LAT7771-PAL binding to recombinant LANCL2 by excess competitor (human recombinant LANCL2; probe LAT7771-PAL (as in FIG. 10 legend), excess LAT8881) | Inhibition of LAT9991-PAL binding to LANCL2 by excess competitor (human recombinant LANCL2; probe LAT9991-PAL, excess LAT8881) | LANCL1 level in LAT9991-PAL pull-down eluate in presence of excess competitor (LANCL1 [1]; 50 μM competitor, 10-fold excess over LAT9991-PAL) | Inhibition of PAL probe binding to LANCL1 from tissue homogenates by excess competitor (LANCL1 [2]; probes LAT9991-PAL, LAT9993-PAL, LAT7771-PAL, excess LAT8881) |
| --- | --- | --- | --- | --- | --- | --- | --- |
| binds | LAT9991-PAL: cyclic peptide of SEQ ID NO:12 (LAT9991) conjugated to the PAL (Photo-Activated Labelling) grouping (CRSVEGSCG; disulfide 1-8 (inferred); also: PAL group on N-terminal Cys-Arg part) | could only be detected in the eluates of LAT9991-PAL samples as a specifically bound protein | met the arbitrary statistical criteria for a “hit”; also recorded: enriched by several fold-changes; also recorded: bound to LANCL1 |  |  |  |  |
|  | YLRIVQCRSVEGSCGF [LAT8881, a cyclic peptide fragment of human growth hormone] |  |  | inhibited | inhibited | reduced | inhibited |
